From patent US20260209386A1 (MYTHIC THERAPEUTICS, published 2026)

B1: MYT11138 (antibody, V domains shown)
VH: EVQLVESGGGLVQPGGSLRLSCTASGFSLSTYAMSWVRQAPGKGLEWVGMIYINDNTYYASWAKGRFTISRDTSKNTVYLQMNSLRAEDTAVYFCARDIGISYYIHVSLWGQGTLVTVSS
VL: EIVMTQSPSTLSASVGDRVIITCQASQSIGTRLSWYQQKPGKAPKLLIYGASKLATGVPSRFSGSGSGAEFTLTISSLQPDDFATYYCLGEYSYTTTDGIAFGQGTKLTVL
notes: MYT9412 HC variant
B2: MYT11145 (antibody, V domains shown)
VH: EVQLVESGGGLVQPGGSLRLSCTASGFSLSTYAMSWVRQAPGKGLEWVGMIYINDNTYYASWAKGRFTISRDTSKNTVYLQMNSLRAEDTAVYFCARDIGISYYIGVSLWGQGTLVTVSS
VL: EIVMTQSPSTLSASVGDRVIITCHASQSIGTRLSWYQQKPGKAPKLLIYGASKLATGVPSRFSGSGSGAEFTLTISSLQPDDFATYYCLGEYSYTTTDGIAFGQGTKLTVL
notes: MYT9412 LC variant
B3: MYT11147 (antibody, V domains shown)
VH: EVQLVESGGGLVQPGGSLRLSCTASGFSLSTYAMSWVRQAPGKGLEWVGMIYINDNTYYASWAKGRFTISRDTSKNTVYLQMNSLRAEDTAVYFCARDIGISYYIGVSLWGQGTLVTVSS
VL: EIVMTQSPSTLSASVGDRVIITCQAHQSIGTRLSWYQQKPGKAPKLLIYGASKLATGVPSRFSGSGSGAEFTLTISSLQPDDFATYYCLGEYSYTTTDGIAFGQGTKLTVL
notes: MYT9412 LC variant
B4: MYT11148 (antibody, V domains shown)
VH: EVQLVESGGGLVQPGGSLRLSCTASGFSLSTYAMSWVRQAPGKGLEWVGMIYINDNTYYASWAKGRFTISRDTSKNTVYLQMNSLRAEDTAVYFCARDIGISYYIGVSLWGQGTLVTVSS
VL: EIVMTQSPSTLSASVGDRVIITCQASHSIGTRLSWYQQKPGKAPKLLIYGASKLATGVPSRFSGSGSGAEFTLTISSLQPDDFATYYCLGEYSYTTTDGIAFGQGTKLTVL
notes: MYT9412 LC variant
B5: MYT11141 (antibody, V domains shown)
VH: EVQLVESGGGLVQPGGSLRLSCTASGFSLSTYAMSWVRQAPGKGLEWVGMIYINDNTYYASWAKGRFTISRDTSKNTVYLQMNSLRAEDTAVYFCARDIGISYYIGVSHWGQGTLVTVSS
VL: EIVMTQSPSTLSASVGDRVIITCQASQSIGTRLSWYQQKPGKAPKLLIYGASKLATGVPSRFSGSGSGAEFTLTISSLQPDDFATYYCLGEYSYTTTDGIAFGQGTKLTVL
notes: MYT9412 HC variant
B6: MYT11149 (antibody, V domains shown)
VH: EVQLVESGGGLVQPGGSLRLSCTASGFSLSTYAMSWVRQAPGKGLEWVGMIYINDNTYYASWAKGRFTISRDTSKNTVYLQMNSLRAEDTAVYFCARDIGISYYIGVSLWGQGTLVTVSS
VL: EIVMTQSPSTLSASVGDRVIITCQASQHIGTRLSWYQQKPGKAPKLLIYGASKLATGVPSRFSGSGSGAEFTLTISSLQPDDFATYYCLGEYSYTTTDGIAFGQGTKLTVL
notes: MYT9412 LC variant
B7: MYT11140 (antibody, V domains shown)
VH: EVQLVESGGGLVQPGGSLRLSCTASGFSLSTYAMSWVRQAPGKGLEWVGMIYINDNTYYASWAKGRFTISRDTSKNTVYLQMNSLRAEDTAVYFCARDIGISYYIGVHLWGQGTLVTVSS
VL: EIVMTQSPSTLSASVGDRVIITCQASQSIGTRLSWYQQKPGKAPKLLIYGASKLATGVPSRFSGSGSGAEFTLTISSLQPDDFATYYCLGEYSYTTTDGIAFGQGTKLTVL
notes: MYT9412 HC variant
B8: MYT11139 (antibody, V domains shown)
VH: EVQLVESGGGLVQPGGSLRLSCTASGFSLSTYAMSWVRQAPGKGLEWVGMIYINDNTYYASWAKGRFTISRDTSKNTVYLQMNSLRAEDTAVYFCARDIGISYYIGHSLWGQGTLVTVSS
VL: EIVMTQSPSTLSASVGDRVIITCQASQSIGTRLSWYQQKPGKAPKLLIYGASKLATGVPSRFSGSGSGAEFTLTISSLQPDDFATYYCLGEYSYTTTDGIAFGQGTKLTVL
notes: MYT9412 HC variant

The binders below were run against T1, Human PTK7 Protein, His Tag, Acro Biosystems (human, UniProt Q13308 31-704) (assay: BLI, anti-human Fc capture, 50 nM PTK7; 2 = substantially similar binding relative to parent).
T1 construct: Bought recombinant protein; also called CCK4; not shown: His tag
T1 sequence: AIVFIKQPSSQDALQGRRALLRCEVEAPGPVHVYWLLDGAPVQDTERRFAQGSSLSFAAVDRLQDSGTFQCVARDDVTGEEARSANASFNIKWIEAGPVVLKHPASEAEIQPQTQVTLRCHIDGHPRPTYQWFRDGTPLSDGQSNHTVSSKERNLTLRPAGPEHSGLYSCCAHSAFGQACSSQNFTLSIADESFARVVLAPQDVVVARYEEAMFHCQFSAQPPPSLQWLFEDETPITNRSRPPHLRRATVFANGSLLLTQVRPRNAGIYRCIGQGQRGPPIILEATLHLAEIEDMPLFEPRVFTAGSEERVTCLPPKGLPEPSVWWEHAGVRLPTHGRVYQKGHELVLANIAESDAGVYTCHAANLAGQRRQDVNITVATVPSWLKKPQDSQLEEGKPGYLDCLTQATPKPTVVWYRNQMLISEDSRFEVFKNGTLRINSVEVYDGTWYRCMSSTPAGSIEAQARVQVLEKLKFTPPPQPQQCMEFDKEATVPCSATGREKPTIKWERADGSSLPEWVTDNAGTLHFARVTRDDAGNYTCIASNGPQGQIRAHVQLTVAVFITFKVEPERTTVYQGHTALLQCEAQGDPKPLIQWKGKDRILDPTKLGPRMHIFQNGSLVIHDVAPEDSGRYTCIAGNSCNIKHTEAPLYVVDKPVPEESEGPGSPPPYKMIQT

Binding result, binds:
B1
B2
B3
B4
B5
B6
B7
B8
